Assay results published in US20180037631A1 (Bristol-Myers Squibb, published 2018).
Changes are numbered by the printed parent chain. Names may count otherwise. “And” between values parts separate entries of the source, which are not always exact repeats. Identical values can stand only once.

B1: I1-GS10-E1 pegylated, His-tagged (designed binder)
chain: MGVSDVPRDLEVVAATPTSLLISWSARLKVARYYRITYGETGGNSPVQEFTVPKNVYTATISGLKPGVDYTITVYAVTRFRDYQPISINYRTEIDKGSGSGSGSGSGSGSGSGSGSVSDVPRDLEVVAATPTSLLISWVAGAEDYQYYRITYGETGGNSPVQEFTVPHDLVTATISGLKPGVDYTITVYAVTDMMHVEYTEHPISINYRTEIDKPCQHHHHHH
modifications: 40 kDa branched PEG on the Cys of the C-terminal Cys tail
B2: I1-GS10-E5 pegylated, His-tagged (designed binder)
chain: MGVSDVPRDLEVVAATPTSLLISWSARLKVARYYRITYGETGGNSPVQEFTVPKNVYTATISGLKPGVDYTITVYAVTRFRDYQPISINYRTEIDKGSGSGSGSGSGSGSGSGSGSVSDVPRDLEVVAATPTSLLISWWAPVDRYQYYRITYGETGGNSPVQEFTVPRDVYTATISGLKPGVDYTITVYAVTDYKPHADGPHTYHESPISINYRTEIDKPCQHHHHHH
modifications: 40 kDa branched PEG on the Cys of the C-terminal Cys tail
notes: also called I1-GS10-E5 (with Peg)
B3: I1-GS10-E5-GSGC pegylated (designed binder)
chain: MGVSDVPRDLEVVAATPTSLLISWSARLKVARYYRITYGETGGNSPVQEFTVPKNVYTATISGLKPGVDYTITVYAVTRFRDYQPISINYRTEIEKGSGSGSGSGSGSGSGSGSGSVSDVPRDLEVVAATPTSLLISWWAPVDRYQYYRITYGETGGNSPVQEFTVPRDVYTATISGLKPGVDYTITVYAVTDYKPHADGPHTYHESPISINYRTEGSGCHHHHHH
modifications: PEG on the Cys of the GSGC tail of E5
notes: alternative clone of I1-GS10-E5 pegylated; also called I1-GS10-E5-GSGC(4)
B4: I1-GSGCGS8-E5 pegylated (designed binder)
chain: MGVSDVPRDLEVVAATPTSLLISWSARLKVARYYRITYGETGGNSPVQEFTVPKNVYTATISGLKPGVDYTITVYAVTRFRDYQPISINYRTEIEKGSGCGSGSGSGSGSGSGSGSVSDVPRDLEVVAATPTSLLISWWAPVDRYQYYRITYGETGGNSPVQEFTVPRDVYTATISGLKPGVDYTITVYAVTDYKPHADGPHTYHESPISINYRTEHHHHHH
modifications: PEG on the Cys of the GSGCGS8 linker
notes: alternative clone of I1-GS10-E5 pegylated; tail of first monomer EIEK (D to E); also called I1-GSGCGS8-E5(3)
B5: I1-GS10-E5 pegylated without the 6HIS tag (designed binder)
chain: B4 chain with E95D, C100S, H217I, H218D, H219K, H220P, H221C, H222Q
modifications: PEG on the Cys of the C-terminal Cys tail
notes: Whether the D-to-E change in the tail of the first monomer applies to this construct is not clear; also called I1-GS10-E5 pegylated(1)
B6: I1-GS10-E5(S91C) pegylated (designed binder)
chain: B4 chain with C100S, S210C
modifications: PEG on Cys at position 91 of E5 (position of SEQ ID NO: 1)
notes: also called I1-GS10-E5(S91C)(8)
B7: I1(S62C)-GS10-E5 pegylated (designed binder)
chain: B4 chain with S62C, C100S
modifications: PEG on Cys at position 62 of I1 (position of SEQ ID NO: 1)
notes: also called I1(S62C)-GS10-E5(5)
B8: I1(S91C)-GS10-E5 pegylated (designed binder)
chain: B4 chain with S87C, C100S
modifications: PEG on Cys at position 91 of I1 (position of SEQ ID NO: 1)
notes: also called I1(S91C)-GS10-E5(7)
B9: I1-GS10-E5(S62C) pegylated (designed binder)
chain: B4 chain with C100S, S176C
modifications: PEG on Cys at position 62 of E5 (position of SEQ ID NO: 1)
notes: also called I1-GS10-E5(S62C)(6)
B10: I1-GS10-E85 pegylated, His-tagged (designed binder)
chain: MGVSDVPRDLEVVAATPTSLLISWSARLKVARYYRITYGETGGNSPVQEFTVPKNVYTATISGLKPGVDYTITVYAVTRFRDYQPISINYRTEIDKGSGSGSGSGSGSGSGSGSGSVSDVPRDLEVVAATPTSLLISWTQGSTHYQYYRITYGETGGNSPVQEFTVPGMVYTATISGLKPGVDYTITVYAVTDYFDRSTHEYKYRTTPISINYRTEIDKPCQHHHHHH
modifications: 40 kDa branched PEG on the Cys of the C-terminal Cys tail
B11: I1-GS10-E105 pegylated, His-tagged (designed binder)
chain: B2 chain with W139D, V142T, D143S, R168G, D169G, V170L, Y171S
modifications: 40 kDa branched PEG on the Cys of the C-terminal Cys tail

These binders were tested against T1, EGFR on the surface of human tumour cells (A431, H292) (human, UniProt P00533 25-1210) (assay: cell-based or functional assay).

Row | Binder | IC50, EGF-stimulated EGFR phosphorylation, A431 cells, In Cell Western | IC50, EGF-stimulated EGFR phosphorylation, H292 cells, ELISA | IC50, EGF-stimulated ERK phosphorylation, A431 cells, In Cell Western
1 | B1 | 302 nM | 127 nM | 300 nM

The binders below were run against T2, IGF-IR on human tumour cells (H292, MCF-7, RH41) (human, UniProt P08069 31-1367) (assay: cell-based or functional assay).

Row | Binder | IC50, IGF1-stimulated IGFR phosphorylation, H292 cells, ELISA
2 | B1 | 0.9 nM

Molecular target: T2, IGF-IR on human tumour cells (H292, …)
Experiment: cell-based or functional assay
Remark: another data set of the same source

Row | Binder | inhibition of RH41 cell proliferation, IC50
3 | B2 | 0.2 nM

The binders below were run against T3, IGF1R-Fc (extracellular domain of human IGF1R aa 1-932 fused to hinge and constant regions of human IgG1) (human, UniProt P08069 31-932) (assay: SPR Biacore).
T3 construct: range 1-932; made in house by transient transfection, purified on Protein A; also called IGF-IR-Fc; not shown: hinge and constant regions of human IgG1

Row | Binder | Kd
4 | B3 | 0.25 nM
5 | B4 | 0.29 nM
6 | B5 | 0.23 nM
7 | B6 | 0.28 nM
8 | B7 | 0.7 nM
9 | B8 | 7.16 nM
10 | B9 | 0.26 nM

These binders were tested against T4, Recombinant human EGFR-Fc (aa 1-645 of the extracellular domain of human EGFR fused to human Fc) (human, UniProt P00533 25-645) (assay: SPR Biacore).
T4 construct: range 1-645; bought from R&D Systems; also called EGFR645-Fc; EGFR-Fc (HER-1); not shown: human Fc

Row | Binder | Kd
11 | B3 | 1.4 nM
12 | B4 | 4 nM
13 | B6 | 17.9 nM
14 | B7 | 8.7 nM
15 | B8 | 17 nM
16 | B9 | 1.7 nM

Each binder was assayed against T4, Recombinant human EGFR-Fc (aa 1-645 of …) (assay: SPR Biacore, EGFR645-Fc; against I1-GS10-E5 Pegylated).

Row | Binder | ΔKd (fold) | Δka (fold) | Δkd (fold)
17 | B3 | 2 fold | 1.1 fold | 1.6 fold
18 | B4 | 0.7 fold | 1 fold | 0.6 fold
19 | B6 | 0.2 fold | 0.4 fold | 0.4 fold
20 | B7 | 0.3 fold | 0.8 fold | 0.4 fold
21 | B8 | 0.2 fold | 0.7 fold | 0.2 fold
22 | B9 | 1.6 fold | 0.6 fold | 2.4 fold

What follows are binders tested against T4, Recombinant human EGFR-Fc (aa 1-645 of …) (assay: not given).

Row | Binder | Kd
23 | B10 | 5.97 nM

The binders below were run against T1, EGFR on the surface of human tumour … (assay: not given).

Row | Binder | IC50
24 | B10 | 37.8 nM

Molecular target: T1, EGFR on the surface of human tumour …
Experiment: cell-based or functional assay
Remark: another data set of the same source

Row | Binder | IC50, EGF-induced EGFR phosphorylation, A431 cells, In Cell Western | IC50, EGF-induced ERK phosphorylation, A431 cells, In Cell Western | IC50, EGF-stimulated EGFR phosphorylation, H292 cells, ELISA
25 | B10 | 22 nM | 23 nM | 8 nM

Molecular target: T2, IGF-IR on human tumour cells (H292, …)
Experiment: cell-based or functional assay
Remark: another data set of the same source

Row | Binder | IC50, IGF1-stimulated IGFR phosphorylation, H292 cells, ELISA
26 | B11 | 0.5 nM
27 | B10 | 0.7 nM

The binders below were run against T3, IGF1R-Fc (extracellular domain of human …) (assay: SPR Biacore, IGF1R-Fc).

Row | Binder | Kd | koff | kon
28 | B3 | 0.25 nM | 0.000265 s⁻¹ | 1.07e+06 M⁻¹ s⁻¹
29 | B4 | 0.29 nM | 0.000245 s⁻¹ | 852000 M⁻¹ s⁻¹
30 | B5 | 0.22 nM and 0.23 nM | 0.000288 s⁻¹ and 0.000276 s⁻¹ | 1.28e+06 M⁻¹ s⁻¹ and 1.22e+06 M⁻¹ s⁻¹
31 | B6 | 0.28 nM | 0.000281 s⁻¹ | 986000 M⁻¹ s⁻¹
32 | B7 | 0.7 nM | 0.000234 s⁻¹ | 334000 M⁻¹ s⁻¹
33 | B8 | 7.16 nM | 0.000589 s⁻¹ | 82200 M⁻¹ s⁻¹
34 | B9 | 0.26 nM | 0.000279 s⁻¹ | 1.07e+06 M⁻¹ s⁻¹

These binders were tested against T3, IGF1R-Fc (extracellular domain of human …) (assay: SPR Biacore, IGF1R-Fc; against I1-GS10-E5 pegylated).

Row | Binder | ΔKd (fold) | Δka (fold) | Δkd (fold)
35 | B3 | 1 fold | 1 fold | 1 fold
36 | B4 | 0.9 fold | 0.8 fold | 1.1 fold
37 | B5 | 1.1 fold | 1.2 fold | 0.9 fold
38 | B6 | 0.9 fold | 0.9 fold | 0.9 fold
39 | B7 | 0.4 fold | 0.3 fold | 1.1 fold
40 | B8 | 0.04 fold | 0.1 fold | 0.4 fold
41 | B9 | 1 fold | 1 fold | 0.9 fold

What follows are binders tested against T3, IGF1R-Fc (extracellular domain of human …) (assay: not given).

Row | Binder | Kd
42 | B10 | 0.43 nM

The binders below were run against monkey EGFR (monkey) (assay: SPR Biacore).

Row | Binder | Kd
43 | B2 | 5.1 nM
44 | B11 | 4.4 nM
45 | B10 | 7 nM

What follows are binders tested against mouse EGFR (mouse, UniProt Q01279 25-647, limits assumed) (assay: SPR Biacore).

Row | Binder | Kd
46 | B2 | 3.4 nM
47 | B11 | 2.7 nM
48 | B10 | 13.9 nM

Each binder was assayed against rat EGFR (rat, UniProt A0ABK0LZB0 35-1214) (assay: SPR Biacore).

Row | Binder | Kd
49 | B2 | 3.6 nM
50 | B11 | 2.9 nM
51 | B10 | 10.7 nM

Molecular target: T1, EGFR on the surface of human tumour …
Experiment: cell-based or functional assay
Remark: another data set of the same source

Row | Binder | pEGFR IC50 | pERK IC50
52 | B3 | 28.7 nM | 19 nM
53 | B4 | 19.8 nM | 8 nM
54 | B5 | 30 nM | 11 nM
55 | B6 | 22.6 nM | 29 nM
56 | B7 | 21 nM | 10 nM
57 | B8 | 22.7 nM | 15 nM
58 | B9 | 68.4 nM | 30 nM

Molecular target: T2, IGF-IR on human tumour cells (H292, …)
Experiment: cell-based or functional assay
Remark: another data set of the same source

Row | Binder | pIGFR IC50
59 | B3 | 1.2 nM
60 | B2 | 2.2 nM
61 | B4 | 1.4 nM
62 | B5 | 1.2 nM
63 | B6 | 2.1 nM
64 | B7 | 1.9 nM
65 | B8 | 6.2 nM
66 | B9 | 2.2 nM

What follows are binders tested against T4, Recombinant human EGFR-Fc (aa 1-645 of …) (assay: SPR Biacore, EGFR645-Fc).

Row | Binder | Kd | koff | kon
67 | B3 | 1.4 nM | 4.52e-05 s⁻¹ | 33400 M⁻¹ s⁻¹
68 | B4 | 4 nM | 0.000118 s⁻¹ | 29400 M⁻¹ s⁻¹
69 | B6 | 17.9 nM | 0.000193 s⁻¹ | 10800 M⁻¹ s⁻¹
70 | B7 | 8.7 nM | 0.000199 s⁻¹ | 22800 M⁻¹ s⁻¹
71 | B8 | 17 nM | 0.000334 s⁻¹ | 19600 M⁻¹ s⁻¹
72 | B9 | 1.7 nM | 3.04e-05 s⁻¹ | 17800 M⁻¹ s⁻¹
